Here are results for two molecules from PMC7211019, “Par complex cluster formation mediated by phase separation” (Nature Communications, 2020).

Ends that are not written are not given here.

To fix the notation:
B1: FITC-labeled Par6β PBM peptide (peptide)
peptide: LEEDGTIITL
modifications: also: FITC label, position not given here
notes: source: synthetic peptide (Phtdpeptides)

One test concerns the target T1, Par3 PDZ3 (rat, UniProt Q9Z340 582-685).
T1 construct: Par3, rat, third PDZ domain; Cloned into pGEX-6P-1 or a modified pET32a vector; also called rat Par3 PDZ3; source: E. coli BL21 (DE3) or Rosetta, purified (Ni2+-NTA, SEC)
Description: fluorescence polarisation; FITC-labeled peptide (~1 μM) titrated with Par3 PDZ domains, 25 °C, buffer A (50 mM Tris pH 8.0, 100 mM NaCl, 1 mM EDTA, 1 mM DTT). The note with it: both partners purified. On the technique in general: Polarisation of emitted light reports the rotation of a fluorescent probe.

Test [1] deals with B1. Described as above. The note with it: both partners purified.

T1 sequence (Q9Z340 582-685): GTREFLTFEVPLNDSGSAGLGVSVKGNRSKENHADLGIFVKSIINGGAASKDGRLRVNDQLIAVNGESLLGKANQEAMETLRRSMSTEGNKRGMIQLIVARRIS

One may read the Kd as the concentration at which binding is half-saturated. Low values mean a tighter complex, high ones a looser complex. Molecule B1 registered a Kd in the test with Par3 PDZ3 of around 1000 nM.

B2: Par3 PDZ3 G600,602 A (domain or fragment, rat)
chain: GTREFLTFEVPLNDSGSAALAVSVKGNRSKENHADLGIFVKSIINGGAASKDGRLRVNDQLIAVNGESLLGKANQEAMETLRRSMSTEGNKRGMIQLIVARRIS
notes: Par3, rat, third PDZ domain with G600A and G602A; source: E. coli BL21 (DE3) or Rosetta, purified (Ni2+-NTA, SEC)
Regarding B2, in test [1], the “fold weakening against wild-type Par3 PDZ3” value was around 20 fold.
